Experiments:
Assay in all cases: SPR
GST-Bcl-2ΔTM S70E = GST-Bcl-2ΔTM S70E (UniProt P10415 1-219, S70E)
[1] = target: Bcl-2ΔTM-His6 (unphosphorylated) (UniProt P10415 1-219)
GST-Bcl-2ΔTM (wt) = GST-Bcl-2ΔTM (wt) (UniProt P10415 1-219)
Sequence of GST-Bcl-2ΔTM (wt) (P10415 1-219, stated change not applied): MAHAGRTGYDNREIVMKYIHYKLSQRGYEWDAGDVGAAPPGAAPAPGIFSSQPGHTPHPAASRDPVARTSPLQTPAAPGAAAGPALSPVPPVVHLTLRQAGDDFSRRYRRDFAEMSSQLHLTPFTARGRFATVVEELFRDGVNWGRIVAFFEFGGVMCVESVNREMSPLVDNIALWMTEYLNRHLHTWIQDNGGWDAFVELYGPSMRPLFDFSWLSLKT

Sequence of GST-Bcl-2ΔTM S70E (P10415 1-219 S70E): as the sequence (P10415 1-219, stated change not applied) above, with S70E counted along it
Sequence of Bcl-2ΔTM-His6 (unphosphorylated) (P10415 1-219, stated change not applied): as the sequence (P10415 1-219, stated change not applied) above

Row | Binder | binding result (GST-Bcl-2ΔTM S70E) | Kd [1] [nM] | Kd (GST-Bcl-2ΔTM (wt)) [nM]
1 | His6-tagged BakΔTM (domain or fragment, UniProt Q16611 1-186, looked up) MASGQGPGPPRQECGEPALPSASEEQVAQDTEEVFRSYVFYRHQQEQEAEGVAAPADPEMVTLPLQPSSTMGQVGRQLAIIGDDINRRYDSEFQTMLQHLQPTAENAYEYFTKIATSLFESGINWGRVVALLGFGYRLALHVYQHGLTGFLGQVTRFVVDFMLHHCIARWIAQRGGWVAALNLGNG | binds | ~150 | –
2 | RPEIWIAQELRRIGDEFNAYYARRVF [26-mer Bim BH3 peptide] | – | – | 7

Reference: article PMC3910374 (Cancer research, 2013)
